Test results taken from publication doi:10.1101/2025.11.07.687251, “Reconstitution of multistep recruitment of ULK1 to membranes in autophagy” (bioRxiv, 2025).

Columns and labels:
[1] = target: T1, mcherry-ATG13(1–230)/TSF-ATG101 (human, UniProt O75143 1-230; Q9BSB4 1-218); assay: pull-down; microscopy-based bead assay (Fig. 5e): GST-GFP-ULK1(415–464) (WT or ADA) as bait on GSH beads; mcherry-ATG13(1–230)/TSF-ATG101 as prey; mCherry channel quantified; details: both partners purified
T1 construct: ATG13, human; ATG101, human, wild type; TSF-tagged proteins in general were purified on Strep-Tactin Sepharose; also called mCherry-ATG13^HD:TSF-ATG101; mCherry-ATG13^HD:ATG101; not shown: mCherry, N-terminal, kept
T1 sequence (looked up) 1: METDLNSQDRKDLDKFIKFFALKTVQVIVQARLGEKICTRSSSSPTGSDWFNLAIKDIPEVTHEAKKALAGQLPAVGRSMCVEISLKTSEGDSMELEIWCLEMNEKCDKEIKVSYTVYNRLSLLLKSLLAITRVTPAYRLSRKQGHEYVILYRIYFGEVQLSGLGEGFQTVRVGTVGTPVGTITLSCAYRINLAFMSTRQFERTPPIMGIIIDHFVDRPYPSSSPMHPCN
T1 sequence (looked up) 2: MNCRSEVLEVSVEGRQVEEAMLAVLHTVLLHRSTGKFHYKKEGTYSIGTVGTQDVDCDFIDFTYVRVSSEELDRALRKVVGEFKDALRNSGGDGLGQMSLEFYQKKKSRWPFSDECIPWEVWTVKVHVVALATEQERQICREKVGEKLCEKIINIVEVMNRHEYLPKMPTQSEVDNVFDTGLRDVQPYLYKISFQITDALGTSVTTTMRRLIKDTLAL

[2] = target: T2, MBP-mCherry-ULK1(291–828) (human, UniProt O75385 291-828); assay: pull-down; microscopy-based bead assay (Fig. S3): GST-ATG13(6–196)/ATG101 as bait on GSH beads; MBP-mCherry-ULK1 fragments added separately; mCherry on the beads imaged; details: both partners purified
T2 construct: ULK1, human, intrinsically disordered region, residues 291-828 (no kinase domain, no EAT domain); also called mCherry-ULK1 ^ΔKDΔEAT (291–828); ULK1 IDR; source: purified (amylose resin); not shown: mCherry, N-terminal, kept
T2 sequence (looked up): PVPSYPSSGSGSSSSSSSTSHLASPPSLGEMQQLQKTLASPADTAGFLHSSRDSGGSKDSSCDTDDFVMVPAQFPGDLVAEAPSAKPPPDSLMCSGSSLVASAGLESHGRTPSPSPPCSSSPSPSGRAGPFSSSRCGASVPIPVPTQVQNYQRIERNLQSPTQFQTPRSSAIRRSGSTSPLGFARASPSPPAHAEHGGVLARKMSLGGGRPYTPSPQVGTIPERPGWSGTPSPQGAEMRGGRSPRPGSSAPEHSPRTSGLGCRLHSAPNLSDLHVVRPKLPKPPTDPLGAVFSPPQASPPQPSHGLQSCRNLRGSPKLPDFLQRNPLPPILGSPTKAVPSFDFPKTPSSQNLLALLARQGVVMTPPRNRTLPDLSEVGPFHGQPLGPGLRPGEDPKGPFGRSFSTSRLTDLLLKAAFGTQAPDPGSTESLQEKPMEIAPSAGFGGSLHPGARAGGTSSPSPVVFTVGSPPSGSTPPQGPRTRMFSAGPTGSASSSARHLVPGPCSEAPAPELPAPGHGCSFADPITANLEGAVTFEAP

B1: GST-GFP-ULK1(415–464) (domain or fragment, human, UniProt O75385 415-464, looked up)
chain: SGRAGPFSSSRCGASVPIPVPTQVQNYQRIERNLQSPTQFQTPRSSAIRR
notes: ULK1, human, IDR fragment with the PVP motif, residues 415-464; GST-tagged proteins in general were purified on GSH resin; also called GST-tagged fragment of the ULK1 IDR encompassing residues 415–464; not shown: GST, N-terminal, kept; GFP, N-terminal, kept
binding result [1]: binds

B2: GST-ATG13(6–196)/ATG101 (complex, human)
chain 1: NSQDRKDLDKFIKFFALKTVQVIVQARLGEKICTRSSSSPTGSDWFNLAIKDIPEVTHEAKKALAGQLPAVGRSMCVEISLKTSEGDSMELEIWCLEMNEKCDKEIKVSYTVYNRLSLLLKSLLAITRVTPAYRLSRKQGHEYVILYRIYFGEVQLSGLGEGFQTVRVGTVGTPVGTITLSCAYRINLAFM
chain 2: MNCRSEVLEVSVEGRQVEEAMLAVLHTVLLHRSTGKFHYKKEGTYSIGTVGTQDVDCDFIDFTYVRVSSEELDRALRKVVGEFKDALRNSGGDGLGQMSLEFYQKKKSRWPFSDECIPWEVWTVKVHVVALATEQERQICREKVGEKLCEKIINIVEVMNRHEYLPKMPTQSEVDNVFDTGLRDVQPYLYKISFQITDALGTSVTTTMRRLIKDTLAL
notes: ATG101, human, wild type; no tag is named; also called GST-ATG13^HD:ATG101; ATG13^HD:ATG101; source: HEK293T-GNTI- cells, transfected (PEI), purified (GSH resin, S200 SEC); not shown: GST, N-terminal, kept
binding result [2]: binds
